Laboratory results: article PMC2756776 (Arteriosclerosis, thrombosis, and vascular biology, 2009)

Target: Factor XI (FXI), plasma-derived (human)
Assay: ELISA

B1: Soluble recombinant ApoER2’ (a splice variant of ApoER2 lacking LDL-binding domains 4, 5 and 6) (receptor)
chain: not shown
Kd: 61 nM
